# Results as given in US20190177411.
# Experiments:
# [1] = target: recombinant Human Pyruvate Dehydrogenase E1-alpha subunit protein (Abcam) (UniProt P08559)
# [2] = tested on: purified recombinant His-tagged PDK1 (Abcam)
# Chain of purified recombinant His-tagged PDK1 (Abcam) (chain, as listed by the source): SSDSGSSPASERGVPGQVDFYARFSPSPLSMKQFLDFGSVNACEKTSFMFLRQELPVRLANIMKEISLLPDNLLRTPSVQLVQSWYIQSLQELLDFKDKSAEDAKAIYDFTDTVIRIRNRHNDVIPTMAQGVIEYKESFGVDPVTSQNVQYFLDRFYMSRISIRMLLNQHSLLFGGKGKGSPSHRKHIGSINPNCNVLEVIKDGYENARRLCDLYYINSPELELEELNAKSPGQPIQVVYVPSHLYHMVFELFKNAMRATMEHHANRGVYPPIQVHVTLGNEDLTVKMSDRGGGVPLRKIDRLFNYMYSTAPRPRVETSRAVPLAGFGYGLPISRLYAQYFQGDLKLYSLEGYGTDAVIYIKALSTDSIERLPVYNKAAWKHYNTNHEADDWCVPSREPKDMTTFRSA
# Chain of recombinant Human Pyruvate Dehydrogenase E1-alpha subunit protein (Abcam) (P08559 30-390): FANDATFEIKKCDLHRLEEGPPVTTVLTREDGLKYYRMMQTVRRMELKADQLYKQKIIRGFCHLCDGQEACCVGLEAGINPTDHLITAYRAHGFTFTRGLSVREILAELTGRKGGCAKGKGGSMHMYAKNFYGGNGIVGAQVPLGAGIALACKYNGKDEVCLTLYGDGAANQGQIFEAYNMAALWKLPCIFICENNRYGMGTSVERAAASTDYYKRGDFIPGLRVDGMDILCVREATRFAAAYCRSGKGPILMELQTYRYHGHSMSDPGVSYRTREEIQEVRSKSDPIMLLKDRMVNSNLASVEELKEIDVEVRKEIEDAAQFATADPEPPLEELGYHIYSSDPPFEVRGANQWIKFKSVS
# Chain of purified recombinant His-tagged PDK4 (Abcam) (chain, as listed by the source): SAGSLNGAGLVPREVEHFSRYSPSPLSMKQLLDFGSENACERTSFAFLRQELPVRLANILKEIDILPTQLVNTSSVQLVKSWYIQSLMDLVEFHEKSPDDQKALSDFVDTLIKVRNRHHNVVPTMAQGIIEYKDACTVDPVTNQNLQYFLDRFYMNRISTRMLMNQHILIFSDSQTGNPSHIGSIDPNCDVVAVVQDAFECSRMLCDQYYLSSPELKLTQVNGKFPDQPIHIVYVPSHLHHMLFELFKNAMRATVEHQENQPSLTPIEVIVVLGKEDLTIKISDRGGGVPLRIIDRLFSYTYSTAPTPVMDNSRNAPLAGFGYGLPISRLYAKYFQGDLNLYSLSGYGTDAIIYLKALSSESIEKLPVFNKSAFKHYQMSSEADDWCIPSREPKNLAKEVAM
# Chain of Flag-tagged T346A PDK1 mutant (chain, as listed by the source T346A): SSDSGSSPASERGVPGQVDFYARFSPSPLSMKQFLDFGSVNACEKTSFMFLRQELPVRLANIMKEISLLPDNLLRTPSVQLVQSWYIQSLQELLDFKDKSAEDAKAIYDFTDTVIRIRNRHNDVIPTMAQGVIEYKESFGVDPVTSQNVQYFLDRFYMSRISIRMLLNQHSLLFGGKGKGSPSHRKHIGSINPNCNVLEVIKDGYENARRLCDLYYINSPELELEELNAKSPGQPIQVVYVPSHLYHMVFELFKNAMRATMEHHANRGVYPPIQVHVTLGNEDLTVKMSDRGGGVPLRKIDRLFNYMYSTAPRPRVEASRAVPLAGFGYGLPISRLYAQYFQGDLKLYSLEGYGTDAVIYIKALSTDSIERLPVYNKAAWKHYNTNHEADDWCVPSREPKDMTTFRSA
substance,measurement,setting,value
"Flag-tagged wild type (WT) PDK1 phosphorylated on T346 (by active Akt2 in a kinase assay, or as precipitated from hypoxic PC3 cells)","PDHE1 phosphorylation by Flag immune complexes mixed with recombinant Akt2 and PDHE1, Western blotting",[1],WT PDK1 phosphorylated PDHE1 in the presence of Akt2
purified recombinant His-tagged PDK3 (Abcam),"PDHE1 phosphorylation in a kinase assay with active Akt2, Western blotting",[1],"increased PDHE1 phosphorylation was detected only in the presence of Akt2 and PDK1, but not PDK2, PDK3 or PDK4"
purified recombinant His-tagged PDK2 (Abcam),"PDHE1 phosphorylation in a kinase assay with active Akt2, Western blotting",[1],"increased PDHE1 phosphorylation was detected only in the presence of Akt2 and PDK1, but not PDK2, PDK3 or PDK4"
Flag-tagged T346A PDK1 mutant,"PDHE1 phosphorylation by Flag immune complexes mixed with recombinant Akt2 and PDHE1, Western blotting",[1],T346A PDK1 mutant was ineffective
kinase active Akt1 (SignalChem),"phosphorylation in a kinase assay, Western blotting with Akt cons Ab",[2],active Akt1 or Akt2 readily phosphorylated PDK1
same,phosphorylation site by LC-MS/MS of chymotrypsin digests after a kinase assay,[2],"Thr346 (T346) was identified ... as the sole phospho-amino acid modified by Akt1 or Akt2, compared to control"
purified recombinant His-tagged PDK4 (Abcam),"PDHE1 phosphorylation in a kinase assay with active Akt2, Western blotting",[1],"increased PDHE1 phosphorylation was detected only in the presence of Akt2 and PDK1, but not PDK2, PDK3 or PDK4"
purified recombinant His-tagged PDK1 (Abcam),"PDHE1 phosphorylation in a kinase assay with recombinant proteins, Western blotting",[1],active Akt2 increased PDK1 phosphorylation of PDHE1
